Data set [1] concerns the molecule itself. Description: crystal structure; SeMet-substituted full-length PYCH_12850; 35% pentaerythritol propoxylate, 0.1 M MES pH 5.5, 0.4 M NaCl, 22°C.
In data set [2] the target is T1, (His)10-MBP-tagged Thermococcus onnurineus ScpA (TON_1071) (Thermococcus onnurineus, UniProt B6YWU6).
T1 chain: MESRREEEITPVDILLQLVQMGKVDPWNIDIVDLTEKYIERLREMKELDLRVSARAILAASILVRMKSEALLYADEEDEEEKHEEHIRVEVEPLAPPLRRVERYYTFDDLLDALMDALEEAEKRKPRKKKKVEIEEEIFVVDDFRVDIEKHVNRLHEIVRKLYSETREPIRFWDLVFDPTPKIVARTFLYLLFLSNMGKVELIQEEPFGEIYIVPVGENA
The experiment in a line: His pull-down (Ni-NTA) and size-exclusion chromatography. (In general: Size exclusion chromatography separates by hydrodynamic size, large species first.)

Data set [3] concerns the molecule itself. Description: SEC; individual ScpB homologue alone on Superdex 200 Increase 10/300 GL; 20 mM Tris-HCl pH 7.5, 100 mM NaCl, 1 mM DTT, 4°C; elution compared with 158 kDa and 43 kDa markers.

B1: Selenomethionine-substituted full-length PYCH_12850 (crystallised) (natural protein, Pyrococcus yayanosii, UniProt F8AFC4 1-192, looked up)
chain: MGLLEDKALVEAALFVAGRPLSLKELSKALGIKSLEYLEKLIELIASEYEERKSAIEVVKVLGDKWVMQLKQEYSQKVIHLMPKPELRAGELKTLALIAYLQPVEQSKIIKLRGSQAYEHIKKLLEMGLIYAEPYERTKLLGTTQKFAELYGFPENDPELIKEAFKKVIHSEYADLMEKIEKNNRKDKREEA
modifications: selenomethionine in place of methionine
notes: ScpB homologue PYCH_12850 of Pyrococcus yayanosii, full length; homodimer in the crystal; also called PYCH_12850 (SeMet); ScpB from Pyrococcus yayanosii; source: E. coli B834 (DE3) RIL, purified
As to B1, the binding result in data set [1] is “binds”.

B2: TON_1955 (putative Thermococcus onnurineus ScpB), untagged (protein)
chain: MGLLEDKALVEAALFVSGRPLSIKELSRALGIRSLDYLEKLIELIAAEYAERKSAIEVVRVLGDKYVMQVKQEYSQRVVHLMPRPDLRTGELKTLALIAYLQPIEQSKLVKLRGSQAYEHIRKLLEMGLIYAEPYERTKLLGTTPKFAELYGFPENDPMMIKEAFKKVVHAEYSDLIAKLEGKEEKEEMPQESEE
As to B2, the binding result in data set [2] is given as “no binding”.

B3: Metli_0606 (sole ScpB homologue of Methanofollis liminatans), untagged (natural protein, UniProt J1ANV5 1-161, looked up)
chain: MVDRTAMLEAALFVADAPVSYGDLAKIFGIKPGEVPALAQELSGRLSARSSPLEVIDSGESVFMVLKEEYAVLVYPVMRPEISRAVLRTLSVIAYRQPILQSDLIEIRGGGAYAHVEELVKRDLVARYRSGRSYLLQTTPEFSRYFKTSDLVGGQGRLDID
notes: ScpB homologue Metli_0606 of Methanofollis liminatans; untagged in the assays; also called ScpB homologue Metli_0606; source: E. coli BL21 (DE3) RIPL, purified
The term stoichiometry N denotes a count of units in the complex or per binding partner. On to B3, for which the “stoichiometry N” value in data set [3] was found to be 2.

For the origin of these results see paper PMC7055376, “Evidence for binary Smc complexes lacking kite subunits in archaea” (IUCrJ, 2020).
